# Source: US20240010736A1
# Biological target: human thrombopoietin receptor (hTPOR, genetic name MPL), on cells (human) (UniProt P40238)
# Assay: cell-based or functional assay
substance,measurement,value
recombinant human thrombopoietin (rhTPO) (from UniProt P40225 22-353) (ligand),EC50 of cell proliferation of BaF3/MPL cells,1.3 ng/mL
